Results taken from paper PMC5591402.

B1: wild-type N2 VHH antibody [camelid] / TAMRA-labeled α-synuclein peptide [modified: tetramethylrhodamine (TAMRA) fluorophore, position not stated; tetramethylrhodamine (TAMRA) fluorophore, position not stated] [not stated] (parent)
chain 1: GQLVESGGGSVQAGGSLRLSCAASGIDSSSYCMGWFRQRPGKEREGVARINGLGGVKTAYADSVKDRFTISRDNAENTVYLQMNSLKPEDTAIYYCAAKFSPGYCGGSWSNFGYWGQGTQVTVSSH
chain 2: GYQDYEPEA

Variants of: B1
Assay: fluorescence polarization
Conditions: with TAMRA-labeled α-synuclein peptide [modified: tetramethylrhodamine (TAMRA) fluorophore, 400 nM VHH, 2 nM TAMRA-labeled α-synuclein peptide, parent: 1, read off a plot

| ratio to parent | Variant |
| --- | --- |
| 0.07 | chain 1 GQLVESGGGSVQAGGSLRLSCAASGIDSSSYCMGWFRQRPGKEREGVARINGLGGVKTAYADSVKDRFTISRDNAENTVYLQMNSLKPEDTAIYYCAAKFSPGACGGSWSNFGYWGQGTQVTVSSH [chain 1 Y104A] |
| 0.1 | chain 1 GQLVESGGGSVQAGGSLRLSCAASGIDSSSYCMGWFRQRPGKEREGVARINGLGGVATAYADSVKDRFTISRDNAENTVYLQMNSLKPEDTAIYYCAAKFSPGYCGGSWSNFGYWGQGTQVTVSSH [chain 1 K57A] |
| 0.075 | chain 1 GQLVESGGGSVQAGGSLRLSCAASGIDSSSYCMGWFRQRPGKEREGVARINGLGGVKTAYADSVKDRFTISRDNAENTVYLQMNSLKPEDTAIYYCAAKFSPGYCGGSASNFGYWGQGTQVTVSSH [chain 1 W109A] |
| 0.015 | chain 1 GQLVESGGGSVQAGGSLRLSCAASGIDSSSYCMGWFRQRPGKEREGVARINGLGAVKTAYADSVKDRFTISRDNAENTVYLQMNSLKPEDTAIYYCAAKFSPGYCGGSWSNFGYWGQGTQVTVSSH [chain 1 G55A] |
| -0.01 | chain 1 GQLVESGGGSVQAGGSLRLSCAASGIDSSSYCMGWFRQRPGKEREGVARINALGGVKTAYADSVKDRFTISRDNAENTVYLQMNSLKPEDTAIYYCAAKFSPGYCGGSWSNFGYWGQGTQVTVSSH [chain 1 G52A] |
| 0.41 | chain 1 GQLVESGGGSVQAGGSLRLSCAASGIDSSSYCMGWFRQRPGKEREGVARANGLGGVKTAYADSVKDRFTISRDNAENTVYLQMNSLKPEDTAIYYCAAKFSPGYCGGSWSNFGYWGQGTQVTVSSH [chain 1 I50A] |
| 0.015 | chain 1 GQLVESGGGSVQAGGSLRLSCAASGIDSSSYCMGWFRQRPGKEREGVARIAGLGGVKTAYADSVKDRFTISRDNAENTVYLQMNSLKPEDTAIYYCAAKFSPGYCGGSWSNFGYWGQGTQVTVSSH [chain 1 N51A] |
